From patent US20170158755A1 (PROTHENA BIOSCIENCES, published 2017)

Columns and labels:
[1] = molecular target: T1, mouse LAMA4 in mouse tissue (mouse, UniProt P97927 25-1816); assay: staining of WT versus LAMA4.KO mouse brain cryosections, anti-human-594 secondary
T1 construct: Native protein in tissue sections, there part of laminin trimers; also called LAMA4-positive mouse tissue; LAMA4-positive mouse brain vasculature
From the text: The specific binding between the 19C12 humanized variants (19C12 chi, H2L3, H2L4, H2L6, H3L6 and isotype control) and LAMA4 was further tested by assessing the variants' ability to stain wild-type vs. LAMA4.KO mouse brains. Humanized monoclonal antibodies against LAMA4 were generated as described in the Materials and Methods. Perfused and fresh frozen WT and LAMA4.KO mouse brains were cryosectioned, acetone-fixed, and stained with LAMA4 primary antibody followed by anti-human-594 secondary antibodies.

[2] = molecular target: T2, human LAMA4 G domain (LG1-5) displayed on 293 cells (human, UniProt Q16363 830-1821); assay: flow cytometry on LAMA4-displaying 293 cells, anti-human-650 secondary antibody; MFI
T2 construct: the vector's tags and membrane anchor are not written here; also called LAMA4-displaying human 293 cells; full length
T2 sequence: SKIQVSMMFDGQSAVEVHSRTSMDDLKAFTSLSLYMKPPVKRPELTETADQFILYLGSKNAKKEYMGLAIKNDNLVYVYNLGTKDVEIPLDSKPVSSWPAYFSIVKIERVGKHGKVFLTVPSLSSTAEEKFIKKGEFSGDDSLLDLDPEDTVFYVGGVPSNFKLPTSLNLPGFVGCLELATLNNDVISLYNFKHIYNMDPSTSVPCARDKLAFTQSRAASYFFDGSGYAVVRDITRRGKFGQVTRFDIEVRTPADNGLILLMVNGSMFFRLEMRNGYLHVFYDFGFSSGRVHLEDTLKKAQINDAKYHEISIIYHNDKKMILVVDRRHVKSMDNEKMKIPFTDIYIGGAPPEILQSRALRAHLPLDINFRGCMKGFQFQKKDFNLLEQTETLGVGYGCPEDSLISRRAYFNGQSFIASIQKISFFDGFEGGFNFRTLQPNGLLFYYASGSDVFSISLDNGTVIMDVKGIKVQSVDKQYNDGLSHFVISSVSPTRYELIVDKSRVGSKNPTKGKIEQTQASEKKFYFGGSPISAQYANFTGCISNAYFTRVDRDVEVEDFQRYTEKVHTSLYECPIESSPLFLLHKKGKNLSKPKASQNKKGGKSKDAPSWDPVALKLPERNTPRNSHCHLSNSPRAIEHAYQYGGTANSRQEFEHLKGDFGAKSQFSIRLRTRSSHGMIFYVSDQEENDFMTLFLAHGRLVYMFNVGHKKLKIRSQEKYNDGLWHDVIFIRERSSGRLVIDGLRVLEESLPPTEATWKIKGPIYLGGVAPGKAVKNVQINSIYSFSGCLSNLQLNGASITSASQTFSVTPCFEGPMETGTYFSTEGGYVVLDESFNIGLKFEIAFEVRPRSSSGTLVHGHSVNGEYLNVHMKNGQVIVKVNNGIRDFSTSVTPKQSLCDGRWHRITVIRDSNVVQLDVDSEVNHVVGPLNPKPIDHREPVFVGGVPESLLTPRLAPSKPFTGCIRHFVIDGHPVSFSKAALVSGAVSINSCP
Experimental: (§1) The 19C12 variants chimeric 19C12, H2L3, H2L4, H2L6, H3L6, and isotype control were tested for their ability to block the binding of LAMA4 to its ligand MCAM (FIG. 15) and to bind LAMA4-displaying cells (FIG. 16). To test LAMA4 binding capacity, serially diluted antibodies were pre-incubated with LAMA4-displaying human 293 cells, followed by anti-human-650 secondary antibody incubation. […] Fluorescent signal was assessed via flow cytometric analyses and plotted as mean fluorescence intensity (MFI). All 19C12 variants retained their MCAM blocking and LAMA4 binding activity when compared with chimeric 19C12.

recombinant laminin 411 = molecular target: T3, recombinant laminin 411 (human, UniProt P07942 22-1786; P11047 34-1609, limits assumed); assay: flow cytometric blocking assay; antibody pre-incubated with 650-labeled laminin 411; blocked partner: human MCAM on CHO cells; MFI
T3 construct: also called LAMA4 in complex with its gamma1 and beta1 chains
Experimental: as §1
Following two washes with FACS buffer (1% FBS in PBS), cells were resuspended with 650-conjugated anti-pan-laminin antibody (1:1000; Novus Biologicals) and incubated for 20 min at 4° C., and washed again. Cells were analyzed for pan-laminin reactivity by flow cytometry using standard procedures.

Measured: binding result

T3 sequence (chain, as listed by the source limits assumed, chain 1 of 3): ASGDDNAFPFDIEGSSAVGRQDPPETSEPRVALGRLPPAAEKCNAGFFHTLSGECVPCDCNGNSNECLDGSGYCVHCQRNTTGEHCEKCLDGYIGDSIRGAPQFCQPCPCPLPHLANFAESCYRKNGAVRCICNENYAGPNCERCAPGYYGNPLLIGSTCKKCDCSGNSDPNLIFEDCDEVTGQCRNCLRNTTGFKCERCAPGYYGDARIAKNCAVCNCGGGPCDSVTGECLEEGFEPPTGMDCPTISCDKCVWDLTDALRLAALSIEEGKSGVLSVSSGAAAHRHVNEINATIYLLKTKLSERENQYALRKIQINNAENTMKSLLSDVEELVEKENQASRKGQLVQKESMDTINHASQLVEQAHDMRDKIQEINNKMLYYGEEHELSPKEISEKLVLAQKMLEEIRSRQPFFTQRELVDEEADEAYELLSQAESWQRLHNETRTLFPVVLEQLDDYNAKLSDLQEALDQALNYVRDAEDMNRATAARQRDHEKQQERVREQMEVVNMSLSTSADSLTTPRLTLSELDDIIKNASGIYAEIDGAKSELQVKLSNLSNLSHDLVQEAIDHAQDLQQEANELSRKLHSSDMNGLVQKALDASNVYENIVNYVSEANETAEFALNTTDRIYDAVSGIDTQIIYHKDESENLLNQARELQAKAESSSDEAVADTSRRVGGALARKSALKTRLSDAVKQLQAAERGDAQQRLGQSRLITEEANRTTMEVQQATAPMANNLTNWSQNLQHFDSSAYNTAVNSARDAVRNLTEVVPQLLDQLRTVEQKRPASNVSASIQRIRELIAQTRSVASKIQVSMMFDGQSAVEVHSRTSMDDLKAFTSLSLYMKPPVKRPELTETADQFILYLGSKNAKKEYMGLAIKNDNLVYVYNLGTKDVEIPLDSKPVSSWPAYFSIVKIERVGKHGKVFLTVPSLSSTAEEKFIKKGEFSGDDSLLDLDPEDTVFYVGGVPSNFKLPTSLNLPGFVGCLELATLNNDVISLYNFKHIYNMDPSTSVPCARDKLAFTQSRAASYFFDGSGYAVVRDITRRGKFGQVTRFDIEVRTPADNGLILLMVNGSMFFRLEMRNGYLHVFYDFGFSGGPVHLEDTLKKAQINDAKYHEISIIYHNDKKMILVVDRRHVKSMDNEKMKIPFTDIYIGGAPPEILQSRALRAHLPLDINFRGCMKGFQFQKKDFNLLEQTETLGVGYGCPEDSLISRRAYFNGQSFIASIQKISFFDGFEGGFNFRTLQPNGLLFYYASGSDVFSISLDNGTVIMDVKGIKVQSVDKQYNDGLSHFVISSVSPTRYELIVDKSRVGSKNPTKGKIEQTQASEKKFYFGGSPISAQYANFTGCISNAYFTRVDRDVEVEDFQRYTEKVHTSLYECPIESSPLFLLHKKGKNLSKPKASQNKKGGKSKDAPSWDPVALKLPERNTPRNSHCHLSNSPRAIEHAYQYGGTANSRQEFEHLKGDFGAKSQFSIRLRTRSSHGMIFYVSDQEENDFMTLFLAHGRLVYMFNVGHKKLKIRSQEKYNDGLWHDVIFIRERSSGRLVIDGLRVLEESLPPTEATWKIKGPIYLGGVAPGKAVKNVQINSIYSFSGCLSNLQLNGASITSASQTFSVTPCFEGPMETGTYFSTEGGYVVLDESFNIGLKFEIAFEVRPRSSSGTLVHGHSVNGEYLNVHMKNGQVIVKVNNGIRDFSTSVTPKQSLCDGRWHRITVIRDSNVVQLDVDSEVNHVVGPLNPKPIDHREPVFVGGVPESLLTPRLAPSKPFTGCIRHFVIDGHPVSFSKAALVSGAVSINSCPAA
T3 sequence (P07942 22-1786 limits assumed, chain 2 of 3): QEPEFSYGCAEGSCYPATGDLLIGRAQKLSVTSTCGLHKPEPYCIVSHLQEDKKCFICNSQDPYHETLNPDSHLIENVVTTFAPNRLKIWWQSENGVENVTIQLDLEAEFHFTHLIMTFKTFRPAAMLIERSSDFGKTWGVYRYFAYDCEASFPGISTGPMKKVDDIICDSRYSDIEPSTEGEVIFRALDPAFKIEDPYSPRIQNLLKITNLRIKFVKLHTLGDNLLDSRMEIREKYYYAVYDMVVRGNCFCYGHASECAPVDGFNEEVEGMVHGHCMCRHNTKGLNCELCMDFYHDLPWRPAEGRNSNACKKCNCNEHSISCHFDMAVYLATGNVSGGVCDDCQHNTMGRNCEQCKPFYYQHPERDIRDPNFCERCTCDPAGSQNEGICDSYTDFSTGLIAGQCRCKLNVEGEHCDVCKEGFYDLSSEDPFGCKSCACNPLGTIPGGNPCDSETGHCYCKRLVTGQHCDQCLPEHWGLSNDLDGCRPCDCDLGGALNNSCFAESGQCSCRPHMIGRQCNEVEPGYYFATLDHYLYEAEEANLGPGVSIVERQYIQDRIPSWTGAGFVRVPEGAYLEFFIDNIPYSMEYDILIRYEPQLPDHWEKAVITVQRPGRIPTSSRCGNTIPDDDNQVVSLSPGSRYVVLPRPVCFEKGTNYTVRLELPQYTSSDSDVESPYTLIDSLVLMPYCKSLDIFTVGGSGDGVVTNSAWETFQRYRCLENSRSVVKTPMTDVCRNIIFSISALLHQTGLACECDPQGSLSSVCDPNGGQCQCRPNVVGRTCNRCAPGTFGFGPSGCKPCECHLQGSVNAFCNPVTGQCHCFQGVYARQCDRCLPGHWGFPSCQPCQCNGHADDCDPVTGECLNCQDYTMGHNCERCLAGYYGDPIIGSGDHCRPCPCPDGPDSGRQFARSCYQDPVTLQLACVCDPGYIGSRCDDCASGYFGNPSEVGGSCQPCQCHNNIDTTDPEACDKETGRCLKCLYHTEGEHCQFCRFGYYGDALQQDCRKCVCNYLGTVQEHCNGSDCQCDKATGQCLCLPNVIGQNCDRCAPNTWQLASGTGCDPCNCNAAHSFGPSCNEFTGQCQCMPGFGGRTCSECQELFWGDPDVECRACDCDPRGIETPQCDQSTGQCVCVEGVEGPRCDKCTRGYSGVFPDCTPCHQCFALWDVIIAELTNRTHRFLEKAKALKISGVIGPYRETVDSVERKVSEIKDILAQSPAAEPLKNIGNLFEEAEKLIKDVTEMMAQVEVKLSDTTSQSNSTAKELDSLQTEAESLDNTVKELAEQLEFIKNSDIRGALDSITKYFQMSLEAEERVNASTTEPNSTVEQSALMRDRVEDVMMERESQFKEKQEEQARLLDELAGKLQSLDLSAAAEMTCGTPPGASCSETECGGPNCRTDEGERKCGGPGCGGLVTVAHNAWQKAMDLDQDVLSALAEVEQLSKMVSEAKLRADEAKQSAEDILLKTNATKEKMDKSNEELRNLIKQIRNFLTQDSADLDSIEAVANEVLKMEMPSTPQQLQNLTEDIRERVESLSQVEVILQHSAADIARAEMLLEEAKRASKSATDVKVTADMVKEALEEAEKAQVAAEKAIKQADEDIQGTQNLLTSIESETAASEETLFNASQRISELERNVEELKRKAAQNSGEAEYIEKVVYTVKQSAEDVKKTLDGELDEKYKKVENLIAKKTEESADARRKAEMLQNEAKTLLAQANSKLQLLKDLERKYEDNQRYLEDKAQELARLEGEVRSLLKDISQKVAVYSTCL
T3 sequence (P11047 34-1609 limits assumed, chain 3 of 3): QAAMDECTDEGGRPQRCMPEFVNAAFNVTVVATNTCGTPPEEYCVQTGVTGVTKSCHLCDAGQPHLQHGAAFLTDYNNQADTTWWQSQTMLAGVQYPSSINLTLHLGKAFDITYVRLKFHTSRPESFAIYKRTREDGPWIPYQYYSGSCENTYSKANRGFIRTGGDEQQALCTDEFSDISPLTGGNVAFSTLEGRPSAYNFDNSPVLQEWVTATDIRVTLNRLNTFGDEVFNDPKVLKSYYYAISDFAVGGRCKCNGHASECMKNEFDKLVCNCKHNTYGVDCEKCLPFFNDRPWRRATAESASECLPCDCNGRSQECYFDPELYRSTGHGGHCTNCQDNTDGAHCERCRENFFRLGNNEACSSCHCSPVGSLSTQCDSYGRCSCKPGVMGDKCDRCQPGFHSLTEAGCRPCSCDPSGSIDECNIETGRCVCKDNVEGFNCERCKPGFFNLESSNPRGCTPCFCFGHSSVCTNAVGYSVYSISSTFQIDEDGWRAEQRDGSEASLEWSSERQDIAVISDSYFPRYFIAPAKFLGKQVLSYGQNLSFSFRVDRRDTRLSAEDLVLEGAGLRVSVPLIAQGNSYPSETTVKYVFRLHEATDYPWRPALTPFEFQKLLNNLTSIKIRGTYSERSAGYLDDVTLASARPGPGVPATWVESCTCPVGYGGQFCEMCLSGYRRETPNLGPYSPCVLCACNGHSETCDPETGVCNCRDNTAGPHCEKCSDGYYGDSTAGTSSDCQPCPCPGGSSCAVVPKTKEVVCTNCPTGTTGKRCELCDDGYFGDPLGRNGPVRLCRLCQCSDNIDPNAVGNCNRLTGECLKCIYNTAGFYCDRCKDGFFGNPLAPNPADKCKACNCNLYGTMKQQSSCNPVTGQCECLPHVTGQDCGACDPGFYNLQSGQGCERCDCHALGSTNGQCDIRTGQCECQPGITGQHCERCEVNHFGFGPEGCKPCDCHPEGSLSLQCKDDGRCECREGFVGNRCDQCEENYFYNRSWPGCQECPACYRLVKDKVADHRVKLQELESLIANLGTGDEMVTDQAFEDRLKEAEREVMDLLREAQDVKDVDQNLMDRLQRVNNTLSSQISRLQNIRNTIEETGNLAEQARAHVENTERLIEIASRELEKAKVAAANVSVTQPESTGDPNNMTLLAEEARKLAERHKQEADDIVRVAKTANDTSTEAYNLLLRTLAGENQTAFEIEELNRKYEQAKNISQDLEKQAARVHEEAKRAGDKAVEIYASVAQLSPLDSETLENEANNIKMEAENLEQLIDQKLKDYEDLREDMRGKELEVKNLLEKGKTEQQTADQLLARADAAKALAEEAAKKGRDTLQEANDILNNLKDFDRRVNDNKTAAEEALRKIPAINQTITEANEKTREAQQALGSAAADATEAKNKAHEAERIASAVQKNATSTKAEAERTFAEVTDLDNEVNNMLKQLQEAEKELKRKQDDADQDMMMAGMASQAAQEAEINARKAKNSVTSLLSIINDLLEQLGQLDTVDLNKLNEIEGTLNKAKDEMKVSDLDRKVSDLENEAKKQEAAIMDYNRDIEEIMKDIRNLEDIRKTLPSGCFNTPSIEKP

B1: humanized 19C12 antibody H2L3 (antibody, V domains shown)
VH: QVQLQQSGAELVKPGASVKVSCKASGYAFSTYWMNWVRQAPGQGLEWIGQIYPGDGDTNYNGKFKGRVTITADKSTSTAYMELSSLRSEDTAVYFCARSDGYYDYWGQGTTVTVSS
VL: NIVLTQSPASLAVSLGERATISCRASESVDSYGTSFMHWYQQKPGQPPKLLICLASSLESGVPARFSGSGSRTDFTLTIDPVEAEDAATYYCQQNNEDPPTFGAGTKLEIKR
notes: Intact humanized IgG (human Fc); also called VHv2/VLv3; Hu19C12 H2L3
binds: [1] | [2] | recombinant laminin 411

B2: humanized 19C12 antibody H2L4 (antibody, V domains shown)
VH: QVQLQQSGAELVKPGASVKVSCKASGYAFSTYWMNWVRQAPGQGLEWIGQIYPGDGDTNYNGKFKGRVTITADKSTSTAYMELSSLRSEDTAVYFCARSDGYYDYWGQGTTVTVSS
VL: NIVLTQSPASLAVSLGERATISCRASESVDSYGTSFMHWYQQKPGQPPKLLISLASSLESGVPARFSGSGSGTDFTLTISPVEAEDAATYYCQQNNEDPPTFGAGTKLEIKR
notes: Intact humanized IgG (human Fc); also called VHv2/VLv4
binds: [1] | [2] | recombinant laminin 411

B3: humanized 19C12 antibody H3L6 (antibody, V domains shown)
VH: EVQLQQSGAELVKPGASVKVSCKASGYAFSTYWMNWVRQAPGQGLEWIGQIYPGDGDTNYNGKFKGRVTITADKSTSTAYMELSSLRSEDTAVYFCARSDGYYDYWGQGTTVTVSS
VL: DIVLTQSPASLAVSLGERATISCRASESVDSYGTSFMHWYQQKPGQPPKLLISLASSLESGVPARFSGSGSGTDFTLTISPVEAEDAATYYCQQNNEDPPTFGAGTKLEIKR
notes: Intact humanized IgG (human Fc); also called VHv3/VLv6
binds: [1] | [2] | recombinant laminin 411

B4: humanized 19C12 antibody H2L6 (antibody, V domains shown)
VH: QVQLQQSGAELVKPGASVKVSCKASGYAFSTYWMNWVRQAPGQGLEWIGQIYPGDGDTNYNGKFKGRVTITADKSTSTAYMELSSLRSEDTAVYFCARSDGYYDYWGQGTTVTVSS
VL: DIVLTQSPASLAVSLGERATISCRASESVDSYGTSFMHWYQQKPGQPPKLLISLASSLESGVPARFSGSGSGTDFTLTISPVEAEDAATYYCQQNNEDPPTFGAGTKLEIKR
notes: Intact humanized IgG (human Fc); also called VHv2/VLv6
binds: [1] | [2] | recombinant laminin 411
